Publication PMC2115487

Target: TGF-beta receptor(s) on CCL64 mink lung epithelial cells (mink (endogenous in CCL64))
Assay: radioligand binding

Kd: 8.3 pM
increase of specific binding with 100 ug/ml heparin over no heparin: 46%
specific binding, cpm of the 100% value (without heparin): 325 cpm
Substance: Human TGF-beta (type 1), 125I-labeled (ligand)
